Binding data for one sequence are collected here from article PMC5498567.

This data set deals with T1, BsmT (Stenotrophomonas maltophilia ATCC 13637 (CGMCC 1.1788 in supplement)), ORF:ed0b4815.
T1 sequence: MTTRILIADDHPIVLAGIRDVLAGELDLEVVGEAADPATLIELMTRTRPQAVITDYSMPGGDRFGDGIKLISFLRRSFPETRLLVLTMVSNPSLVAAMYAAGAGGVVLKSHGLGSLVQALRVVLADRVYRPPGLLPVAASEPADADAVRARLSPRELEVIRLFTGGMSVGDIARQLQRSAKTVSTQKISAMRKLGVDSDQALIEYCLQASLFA
The data set is described as follows: EMSA. The note with it: EMSA: 1 fmol 32P-labelled dsDNA with BsmT in reaction buffer at 28 °C; buffer composition, salt and pH not given (protein storage buffer 50 mM Tris-HCl, 0.5 mM …). (In general: In EMSA bound probe runs differently from free probe, usually more slowly.)

As for “GTGCCCGGCCAATGTCGGTACAGGAAACCCCCGCTTCGGCGGGGGTTCCTTTTTTTGCCACCTGAACGGTGCCCGCGTGCAGGCTCCGGGCCGGTCGGCCAGCCGGGGATTTTAGGAAACAGCTGATTCCGCGCCGTCCGCGCCGCTTCCTAGCATCGTTGC (double strand)”, the binding result was “binds”.
